Data reported in patent US20230125550A1 (ARCELLX, published 2023).

Target: T1, recombinant human CD123-Fc (human, UniProt P26951 19-305)
T1 construct: not shown: Fc part of CD123-Fc
T1 sequence: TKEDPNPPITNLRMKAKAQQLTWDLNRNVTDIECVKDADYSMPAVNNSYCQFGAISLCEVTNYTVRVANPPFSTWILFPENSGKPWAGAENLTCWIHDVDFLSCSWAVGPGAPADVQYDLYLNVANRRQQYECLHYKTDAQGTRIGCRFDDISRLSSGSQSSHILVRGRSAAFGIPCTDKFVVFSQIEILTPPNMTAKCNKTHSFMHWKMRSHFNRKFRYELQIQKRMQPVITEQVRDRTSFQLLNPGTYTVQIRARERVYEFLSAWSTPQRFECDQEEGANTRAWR
Experiment: phage ELISA, captured CD123-Fc
Method in brief: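 Readout is the clone-averaged A450 ratio of target-Fc over IgG1-Fc wells, detected with HRP-conjugated anti-M13. Each Fc protein (5 nM) was captured on goat anti-human IgG1-Fc-coated plates. Phage were rescued with VCSM13 from BCMA-panning colonies and added at 5× dilution.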

B1: SEQ ID NO: 544 (designed binder)
chain: MGSWEEFDKRLDAITRRLMALGGSEAELAEFESTIAWFEWDLQEYKGKGNPEVEALDWEAYAIDYELGAYRHN
notes: D domain, on phage
ELISA_avg: 4.5 ratio A450 target/IgG1-Fc

B2: SEQ ID NO: 580 (designed binder)
chain: MGSWIEFFHRLDAIQDRLDALGGSEAELAYFEWAIADFEHMLQLYKGKGNPEVEALQFEAFAIEGELYAYRHN
notes: D domain, on phage
ELISA_avg: 3.5 ratio A450 target/IgG1-Fc

B3: SEQ ID NO: 547 (designed binder)
chain: MGSWVEFDDRLDAIWERLDALGGSEAELAWFEEQIAVFEHQLQDYKGKGNPEVEALNQEAEAIDLELKAYRHN
notes: D domain, on phage
ELISA_avg: 5 ratio A450 target/IgG1-Fc

B4: SEQ ID NO: 552 (designed binder)
chain: MGSWYEFESRLEAIWWRLEALGGSEAELAQFEQYIADFEQHLQWYKGKGNPEVEALDWEADAIWLELQAYRHN
notes: D domain, on phage
ELISA_avg: 4.4 ratio A450 target/IgG1-Fc

B5: SEQ ID NO: 571 (designed binder)
chain: MGSWAEFDSRLDAIAQRLFALGGSEAELAHFEDFIAQFEYSLQEYKGKGNPEVEALSNEADAIFNELKAYRHN
notes: D domain, on phage
ELISA_avg: 3.6 ratio A450 target/IgG1-Fc

B6: SEQ ID NO: 549 (designed binder)
chain: MGSWSEFDQRLEAIWNRLDALGGSEAELADFEREIAYFENQLQWYKGKGNPEVEALNNEAFAIVDELGAYRHN
notes: D domain, on phage
ELISA_avg: 3.4 ratio A450 target/IgG1-Fc

B7: SEQ ID NO: 543 (designed binder)
chain: MGSWEEFDVRLDAIFNRLWALGGSEAELAEFEFDIAWFEMDLQEYKGKGNPEVEALFDEAEAITNELVAYRHN
notes: D domain, on phage
ELISA_avg: 4.7 ratio A450 target/IgG1-Fc

B8: SEQ ID NO: 566 (designed binder)
chain: MGSWSEFWFRLDAIEDRLWALGGSEAELAEFEDNIALFEYSLQHYKGKGNPEVEALVKEANAIDDELGAYRHN
notes: D domain, on phage
ELISA_avg: 4.5 ratio A450 target/IgG1-Fc

B9: SEQ ID NO: 565 (designed binder)
chain: MGSWFEFDQRLDAITFRLWALGGSEAELAEFEDVIALFEYHLQDYKGKGNPEVEALEVEAWAIFHELGAYRHN
notes: D domain, on phage
ELISA_avg: 3.2 ratio A450 target/IgG1-Fc

B10: SEQ ID NO: 573 (designed binder)
chain: MGSWTEFEERLEAIWDRLYALGGSEAELAAFEWDIAYFEDGLQEYKGKGNPEVEALFMEAEAIIRELKAYRHN
notes: D domain, on phage
ELISA_avg: 5.9 ratio A450 target/IgG1-Fc

B11: SEQ ID NO: 555 (designed binder)
chain: MGSWEEFDTRLLAIFGRLGALGGSEAELALFEMLIAKFEDDLQNYKGKGNPEVEALSEEAFAIDHELGAYRHN
notes: D domain, on phage
ELISA_avg: 6.7 ratio A450 target/IgG1-Fc

B12: SEQ ID NO: 562 (designed binder)
chain: MGSWYEFNMRLGAIDDRLQALGGSEAELAWFEDMIAIFEDDLQIYKGKGNPEVEALEQEAAAIHQELWAYRHN
notes: D domain, on phage
ELISA_avg: 3.8 ratio A450 target/IgG1-Fc

B13: SEQ ID NO: 551 (designed binder)
chain: MGSWMEFDYRLEAIWMRLIALGGSEAELADFESSIADFEHHLQSYKGKGNPEVEALEWEAFAIGVELDAYRHN
notes: D domain, on phage
ELISA_avg: 3.1 ratio A450 target/IgG1-Fc

B14: SEQ ID NO: 577 (designed binder)
chain: MGSWFEFTIRLEAIQDRLDALGGSEAELAWFEWDIAEFEEGLQFYKGKGNPEVEALHTEADAIMNELVAYRHN
notes: D domain, on phage
ELISA_avg: 3.5 ratio A450 target/IgG1-Fc

B15: SEQ ID NO: 557 (designed binder)
chain: MGSWEEFHERLDAIDERLEALGGSEAELAFFEDDIASFEDWLQWYKGKGNPEVEALSREADAINFELEAYRHN
notes: D domain, on phage
ELISA_avg: 4.3 ratio A450 target/IgG1-Fc

B16: SEQ ID NO: 568 (designed binder)
chain: MGSWYEFDDRLWAIFDRLFALGGSEAELAFFEDSIAEFEEELQHYKGKGNPEVEALYLEAWAIENELGAYRHN
notes: D domain, on phage
ELISA_avg: 4.7 ratio A450 target/IgG1-Fc

B17: SEQ ID NO: 546 (designed binder)
chain: MGSWNEFDDRLLAIWGRLDALGGSEAELAFFEEQIAGFEDELQWYKGKGNPEVEALDQEAEAIEKELWAYRHN
notes: D domain, on phage
ELISA_avg: 4.1 ratio A450 target/IgG1-Fc

B18: SEQ ID NO: 545 (designed binder)
chain: MGSWYEFDHRLEAIYDRLWALGGSEAELAFFEFDIADFEWDLQSYKGKGNPEVEALFDEAAAIGHELLAYRHN
notes: D domain, on phage
ELISA_avg: 4.5 ratio A450 target/IgG1-Fc

B19: SEQ ID NO: 550 (designed binder)
chain: MGSWYEFDERLWAIWERLDALGGSEAELAHFEWVIADFENDLQWYKGKGNPEVEALEFEAEAIVTELHAYRHN
notes: D domain, on phage
ELISA_avg: 3.6 ratio A450 target/IgG1-Fc

B20: SEQ ID NO: 578 (designed binder)
chain: MGSWYEFVSRLDAIEYRLWALGGSEAELAWFEWDIADFEQGLQFYKGKGNPEVEALAQEANAIGSELTAYRHN
notes: D domain, on phage
ELISA_avg: 3.2 ratio A450 target/IgG1-Fc

B21: SEQ ID NO: 574 (designed binder)
chain: MGSWYEFEDRLAAIWDRLNALGGSEAELAIFEWDIAWFEEGLQEYKGKGNPEVEALKHEASAIQTELFAYRHN
notes: D domain, on phage
ELISA_avg: 6.4 ratio A450 target/IgG1-Fc

B22: SEQ ID NO: 553 (designed binder)
chain: MGSWEEFYMRLVAIHMRLRALGGSEAELAVFENYIAEFEEYLQYYKGKGNPEVEALTIEADAIGTELGAYRHN
notes: D domain, on phage
ELISA_avg: 4.4 ratio A450 target/IgG1-Fc

B23: SEQ ID NO: 540 (designed binder)
chain: MGSWYEFDDRLDAIAYRLNALGGSEAELAWFEWEIAEFELDLQWYKGKGNPEVEALVWEADAIEWELEAYRHN
notes: D domain, on phage
ELISA_avg: 4.6 ratio A450 target/IgG1-Fc

B24: SEQ ID NO: 539 (designed binder)
chain: MGSWSEFDSRLDAIAYRLFALGGSEAELAQFEWIIADFEEDLQMYKGKGNPEVEALFSEAYAIEIELNAYRHN
notes: D domain, on phage
ELISA_avg: 4.3 ratio A450 target/IgG1-Fc

B25: SEQ ID NO: 556 (designed binder)
chain: MGSWREFDQRLWAIDWRLEALGGSEAELAMFEWMIATFEDDLQWYKGKGNPEVEALYREAFAIDWELDAYRHN
notes: D domain, on phage
ELISA_avg: 3.4 ratio A450 target/IgG1-Fc

B26: SEQ ID NO: 572 (designed binder)
chain: MGSWAEFDSRLIAIFDRLWALGGSEAELAWFEDDIAQFEQHLQAYKGKGNPEVEALRQEADAITFELKAYRHN
notes: D domain, on phage
ELISA_avg: 3.6 ratio A450 target/IgG1-Fc

B27: SEQ ID NO: 548 (designed binder)
chain: MGSWTEFDDRLFAIYWRLDALGGSEAELAWFEEVIAEFENDLQVYKGKGNPEVEALDDEAHAISIELEAYRHN
notes: D domain, on phage
ELISA_avg: 6.4 ratio A450 target/IgG1-Fc

B28: SEQ ID NO: 579 (designed binder)
chain: MGSWEEFDYRLYAIQDRLYALGGSEAELAFFEWEIADFEHMLQMYKGKGNPEVEALFQEADAIDAELHAYRHN
notes: D domain, on phage
ELISA_avg: 4.4 ratio A450 target/IgG1-Fc

B29: SEQ ID NO: 563 (designed binder)
chain: MGSWEEFHWRLGAIDARLEALGGSEAELAWFEDGIADFEAILQDYKGKGNPEVEALDSEAVAIHHELWAYRHN
notes: D domain, on phage
ELISA_avg: 3.3 ratio A450 target/IgG1-Fc

B30: SEQ ID NO: 575 (designed binder)
chain: MGSWLEFESRLWAIWDRLDALGGSEAELAHFEQDIADFEMSLQEYKGKGNPEVEALIREAEAIETELYAYRHN
notes: D domain, on phage
ELISA_avg: 3.4 ratio A450 target/IgG1-Fc

B31: SEQ ID NO: 560 (designed binder)
chain: MGSWVEFIMRLDAIYERLDALGGSEAELAEFEWHIADFEDHLQWYKGKGNPEVEALFEEADAIWEELWAYRHN
notes: D domain, on phage
ELISA_avg: 6.4 ratio A450 target/IgG1-Fc

B32: SEQ ID NO: 542 (designed binder)
chain: MGSWEEFDQRLDAIDVRLYALGGSEAELAEFEFDIAAFEEWLQLYKGKGNPEVEALNMEAFAITDELCAYRHN
notes: D domain, on phage
ELISA_avg: 3.6 ratio A450 target/IgG1-Fc

B33: SEQ ID NO: 558 (designed binder)
chain: MGSWNEFYERLEAIDRRLFALGGSEAELALFEWMIADFEDDLQMYKGKGNPEVEALINEAGAIGFELEAYRHN
notes: D domain, on phage
ELISA_avg: 5.2 ratio A450 target/IgG1-Fc

B34: SEQ ID NO: 541 (designed binder)
chain: MGSWFEFDERLDAIGSRLTALGGSEAELASFEFYIADFEEWLQQYKGKGNPEVEALEWEAFAIDEELGAYRHN
notes: D domain, on phage
ELISA_avg: 3.8 ratio A450 target/IgG1-Fc

B35: SEQ ID NO: 564 (designed binder)
chain: MGSWYEFYERLWAIDDRLWALGGSEAELAEFEDSIATFEPSLQMYKGKGNPEVEALVAEAWAIFDELAAYRHN
notes: D domain, on phage
ELISA_avg: 3.6 ratio A450 target/IgG1-Fc

B36: SEQ ID NO: 554 (designed binder)
chain: MGSWDEFYYRLVAITHRLHALGGSEAELAWFEDDIAGFEWDLQTYKGKGNPEVEALYKEAGAIGMELTAYRHN
notes: D domain, on phage
ELISA_avg: 5.4 ratio A450 target/IgG1-Fc

B37: SEQ ID NO: 567 (designed binder)
chain: MGSWYEFWDRLTAIEHRLWALGGSEAELAYFEDSIAHFEGSLQVYKGKGNPEVEALYKEAEAIEWELEAYRHN
notes: D domain, on phage
ELISA_avg: 4.4 ratio A450 target/IgG1-Fc

B38: SEQ ID NO: 576 (designed binder)
chain: MGSWMEFEDRLIAIWARLDALGGSEAELAWFEADIADFEESLQEYKGKGNPEVEALIFEAIAINKELMAYRHN
notes: D domain, on phage
ELISA_avg: 3.7 ratio A450 target/IgG1-Fc

B39: SEQ ID NO: 569 (designed binder)
chain: MGSWNEFVERLSAIDHRLWALGGSEAELADFEQQIAEFEIHLQEYKGKGNPEVEALDFEADAIFDELLAYRHN
notes: D domain, on phage
ELISA_avg: 3.2 ratio A450 target/IgG1-Fc

B40: SEQ ID NO: 570 (designed binder)
chain: MGSWSEFVDRLDAIFDRLWALGGSEAELAWFEDTIAHFEWNLQEYKGKGNPEVEALNGEADAITDELHAYRHN
notes: D domain, on phage
ELISA_avg: 5.3 ratio A450 target/IgG1-Fc

B41: SEQ ID NO: 561 (designed binder)
chain: MGSWNEFLLRLDAIEHRLFALGGSEAELAEFEWEIADFEDDLQWYKGKGNPEVEALVEEAEAIDVELVAYRHN
notes: D domain, on phage
ELISA_avg: 3.2 ratio A450 target/IgG1-Fc

B42: SEQ ID NO: 559 (designed binder)
chain: MGSWTEFTQRLEAIVDRLFALGGSEAELAEFENSIADFEWDLQWYKGKGNPEVEALNREAVAIDNELWAYRHN
notes: D domain, on phage
ELISA_avg: 3.9 ratio A450 target/IgG1-Fc
